For assay [1], the target named is T1, SH1 kinase domain of Tec (Homo sapiens, UniProt P42680).
T1 construct: yielding a homogenous preparation of the SH1 kinase domain; His (N, cleaved yes); made in house; host or cells: Tec SH1: SF9 insect cells (baculovirus); FGF2: E. coli
Description: Steady-state fluorescence polarization, FGF2 binding to SH1 kinase domain of Tec. As to conditions: fluorescein-labeled FGF2 50 nM, 1:1 stoichiometry, ± SEM; read-out: dissociation constant FGF2 / SH1 kinase domain of Tec. As for the experimental part: (§1) (A) Fluorescence polarization experiments were conducted using fluorescein-labeled FGF2. FGF2 (at a constant concentration of 50 nM) was incubated with increasing concentrations (0 to 20 μM) of the various Tec constructs indicated. Following incubation for 3 hours at room temperature, changes in polarization (ΔPolarization in mP) were recorded. A non-linear regression analysis was conducted (GST-NΔ173 Tec: black circles, n=8; SH1 kinase domain: green squares, n=5; GST-PH-TH: blue triangles, n=3; GST-SH3-SH2: red triangles, n=3; GST: orange rhombuses, n=5) and standard errors of the mean (SEM) were calculated. As detailed in Experimental Procedures, assuming a binding stoichiometry of 1:1, dissociation constants were calculated to be 1.434 μM±0.55 (SEM) for GST-NΔ173 Tec and 1.032 μM±0.29 (SEM) for the SH1 kinase domain of Tec. FIG. 2A discloses “His6” as SEQ ID NO: 2.
(§2) To determine binding affinity between Tec kinase and FGF2, steady-state fluorescence polarization was used. […] Based on the extinction coefficients of both His-tagged FGF2 and fluroscein-5-maleimide, the degree of labeling was determined to be 30%. […] Absolute protein concentrations were determined based upon the extinction coefficients calculated for each protein and measuring absorption at 280 nm using a NanoDrop 1000 spectrophotometer. […]

The target of assay [2] is T2, GST-NΔ173 Tec (Homo sapiens, UniProt P42680).
T2 construct: made in house; host or cells: Tec: SF9 insect cells (baculovirus); FGF2: E. coli
T2 sequence (P42680 174-631, stated change not applied): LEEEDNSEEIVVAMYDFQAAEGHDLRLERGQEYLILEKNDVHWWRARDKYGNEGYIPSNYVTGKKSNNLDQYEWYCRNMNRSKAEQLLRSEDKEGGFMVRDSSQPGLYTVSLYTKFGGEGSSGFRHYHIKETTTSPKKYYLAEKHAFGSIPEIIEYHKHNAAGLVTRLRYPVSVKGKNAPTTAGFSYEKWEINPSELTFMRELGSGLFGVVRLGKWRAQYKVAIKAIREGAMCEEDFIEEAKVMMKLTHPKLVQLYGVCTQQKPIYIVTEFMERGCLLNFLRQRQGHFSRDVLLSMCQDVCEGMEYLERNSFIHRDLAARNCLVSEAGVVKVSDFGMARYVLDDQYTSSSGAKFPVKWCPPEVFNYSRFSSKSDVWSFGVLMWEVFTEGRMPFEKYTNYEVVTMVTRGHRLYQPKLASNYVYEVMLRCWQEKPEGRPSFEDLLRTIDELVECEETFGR
In words: Steady-state fluorescence polarization, FGF2 binding to GST-NΔ173 Tec. As to conditions: fluorescein-labeled FGF2 50 nM, 1:1 stoichiometry, ± SEM; read-out: dissociation constant FGF2 / GST-NΔ173 Tec. As for the experimental part: as §1, §2
(Polarisation of emitted light reports the rotation of a fluorescent probe.)

One substance from patent US10842793B2, “Inhibitors of the unconventional secretion of fibroblast growth factor 2 (FGF2) by tumor cells and uses thereof” (Universität Heidelberg, priority 2016, dated 2020) can be followed below.

T1 sequence (P42680 370-623 limits assumed): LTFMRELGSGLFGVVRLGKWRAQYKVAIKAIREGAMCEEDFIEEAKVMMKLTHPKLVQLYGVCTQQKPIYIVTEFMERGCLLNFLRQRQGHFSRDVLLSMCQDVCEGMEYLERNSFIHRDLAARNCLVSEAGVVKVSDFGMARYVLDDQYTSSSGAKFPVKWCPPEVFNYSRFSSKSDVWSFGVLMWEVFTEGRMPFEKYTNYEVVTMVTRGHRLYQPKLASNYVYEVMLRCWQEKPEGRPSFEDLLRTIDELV

Turning to “FGF2: recombinant fibroblast growth factor 2, His-tagged and fluorescein-labeled for fluorescence polarization”, the Kd in assay [1] came to 1030 nM; in assay [2] it was 1430 nM.
